The target of this test is t-SNARE heterodimer (mouse SNAP-25B and rat syntaxin 1A), reconstituted into vesicles (rat | mouse, UniProt P32851;P60879-1). The test is described as follows: co-flotation.
Sequence of t-SNARE heterodimer (mouse SNAP-25B and rat syntaxin 1A), reconstituted into vesicles (P32851 whole entry, chain 1 of 2): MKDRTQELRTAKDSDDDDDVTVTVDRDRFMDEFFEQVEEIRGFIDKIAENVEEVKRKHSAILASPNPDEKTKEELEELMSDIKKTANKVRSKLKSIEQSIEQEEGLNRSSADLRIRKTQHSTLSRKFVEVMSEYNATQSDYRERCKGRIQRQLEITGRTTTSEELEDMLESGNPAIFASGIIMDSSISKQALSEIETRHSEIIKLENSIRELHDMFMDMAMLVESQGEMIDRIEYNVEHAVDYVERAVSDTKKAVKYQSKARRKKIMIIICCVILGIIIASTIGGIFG
Sequence of t-SNARE heterodimer (mouse SNAP-25B and rat syntaxin 1A), reconstituted into vesicles (P60879 whole entry, chain 2 of 2): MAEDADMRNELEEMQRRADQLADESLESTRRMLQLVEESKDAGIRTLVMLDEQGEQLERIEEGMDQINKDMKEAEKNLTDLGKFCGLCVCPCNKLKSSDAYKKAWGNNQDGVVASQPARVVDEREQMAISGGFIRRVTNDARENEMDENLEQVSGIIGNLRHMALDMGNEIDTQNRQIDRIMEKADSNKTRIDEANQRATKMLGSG

B1: syt 1 C2AB T328A (domain or fragment)
chain: KGGKNAINMKDVKDLGKTMKDQALKDDDAETGLTDGEEKEEPKEEEKLGKLQYSLDYDFQNNQLLVGIIQAAELPALDMGGTSDPYVKVFLLPDKKKKFETKVHRKTLNPVFNEQFTFKVPYSELGGKTLVMAVYDFDRFSKHDIIGEFKVPMNTVDFGHVTEEWRDLQSAEKEEQEKLGDICFSLRYVPTAGKLTVVILEAKNLKKMDVGGLSDPYVKIHLMQNGKRLKKKKATIKKNTLNPYYNESFSFEVPFEQIQKVQVVVTVLDYDKIGKNDAIGKVFVGYNSTGAELRHWSDMLANPRRPIAQWHTLQVEEEVDAMLAVKK
Consider B1, for which the binding result is given as “binds”.

B2: syt 1 C2AB E341A (domain or fragment)
chain: KGGKNAINMKDVKDLGKTMKDQALKDDDAETGLTDGEEKEEPKEEEKLGKLQYSLDYDFQNNQLLVGIIQAAELPALDMGGTSDPYVKVFLLPDKKKKFETKVHRKTLNPVFNEQFTFKVPYSELGGKTLVMAVYDFDRFSKHDIIGEFKVPMNTVDFGHVTEEWRDLQSAEKEEQEKLGDICFSLRYVPTAGKLTVVILEAKNLKKMDVGGLSDPYVKIHLMQNGKRLKKKKTTIKKNTLNPYYNASFSFEVPFEQIQKVQVVVTVLDYDKIGKNDAIGKVFVGYNSTGAELRHWSDMLANPRRPIAQWHTLQVEEEVDAMLAVKK
Take B2: the binding result is reported as “binds”.

B3: syt 1 C2AB K313R/K325R/K327R (domain or fragment)
chain: KGGKNAINMKDVKDLGKTMKDQALKDDDAETGLTDGEEKEEPKEEEKLGKLQYSLDYDFQNNQLLVGIIQAAELPALDMGGTSDPYVKVFLLPDKKKKFETKVHRKTLNPVFNEQFTFKVPYSELGGKTLVMAVYDFDRFSKHDIIGEFKVPMNTVDFGHVTEEWRDLQSAEKEEQEKLGDICFSLRYVPTAGKLTVVILEAKNLKKMDVGGLSDPYVRIHLMQNGKRLKRKRTTIKKNTLNPYYNESFSFEVPFEQIQKVQVVVTVLDYDKIGKNDAIGKVFVGYNSTGAELRHWSDMLANPRRPIAQWHTLQVEEEVDAMLAVKK
For B3, the binding result is reported as “binds”.

For the origin of these results see publication PMC2581593 (The Journal of Biological Chemistry, 2008).
